According to paper PMC2887947:
Where two headings read alike, the source gives them in different places.

Columns and labels:
Assay in all cases: EMSA
M. tuberculosis H-NS [1] = molecular target: T1, M. tuberculosis H-NS (Mycobacterium tuberculosis H37Rv, UniProt I6YHB0 1-134)
T1 sequence: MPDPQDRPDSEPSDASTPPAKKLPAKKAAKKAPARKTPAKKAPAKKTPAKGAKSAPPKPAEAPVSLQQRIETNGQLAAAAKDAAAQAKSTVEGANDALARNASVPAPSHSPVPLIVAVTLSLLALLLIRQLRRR

E. coli H-NS [2] = molecular target: T2, E. coli H-NS (Escherichia coli, UniProt P0ACF8 1-137)
T2 sequence: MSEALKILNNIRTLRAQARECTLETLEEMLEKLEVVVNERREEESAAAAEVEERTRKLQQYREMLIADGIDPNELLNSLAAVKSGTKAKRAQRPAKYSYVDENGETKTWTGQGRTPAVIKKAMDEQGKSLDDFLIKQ

M. tuberculosis H-NS [3] = molecular target: T1, M. tuberculosis H-NS; remark: listed apart in the source
E. coli H-NS [4] = molecular target: T2, E. coli H-NS; remark: listed apart in the source
M. tuberculosis H-NS [5] = molecular target: T1, M. tuberculosis H-NS; remark: listed apart in the source
M. tuberculosis H-NS [6] = molecular target: T1, M. tuberculosis H-NS; remark: listed apart in the source

B1: dsDNA 40% GC (83 bp) (dsDNA)
DNA 1: GTACTATACGGTTGTACAGTGTTGTTAGTGAGTTGAAGATTGGAAGTAGTTTGCTAGGTGTCTTAGGAGAGAATCGTTAGTGT
DNA 2: ACACTAACGATTCTCTCCTAAGACACCTAGCAAACTACTTCCAATCTTCAACTCACTAACAACACTGTACAACCGTATAGATC
B1: binds (M. tuberculosis H-NS [1]).

B2: Holliday junction (HJ) (structured_DNA)
DNA 1: GCCGTGATCACCAATGCAGATTGACGAACCTTTGCCCACGT
DNA 2: GACGTGGGCAAAGGTTCGTCAATGGACTGACAGCTGCATGG
DNA 3: GCCATGCAGCTGTCAGTCCATTGTCATGCTAGGCCTACTGC
DNA 4: GGCAGTAGGCCTAGCATGACAATCTGCATTGGTGATCACGG
With B2 the binding result (E. coli H-NS [2]) was “binds” and the Kd (M. tuberculosis H-NS [1]) was roughly 32 nM.

B3: DNA replication fork (structured_DNA)
DNA 1: B2 DNA 2
DNA 2: B2 DNA 3
DNA 3: GCAGTAGGCCTAGCATGA
DNA 4: CGAACCTTTGCCCACGTC
For B3, the binding signal (M. tuberculosis H-NS [3]) was roughly 6 fold higher Kd than HJ and the binding result (E. coli H-NS [4]) was “binds”.

B4: Y-shaped junction (structured_DNA)
DNA 1: B2 DNA 2
DNA 2: B2 DNA 3
For B4, the binding signal (M. tuberculosis H-NS [5]) was roughly 7 fold higher Kd than HJ.

B5: dsDNA 70% GC (83 bp) (dsDNA)
DNA 1: GCGGTGGACGGCTGGGTCGGGTGGTGAGTGGGTTGCGATGGAGGTGGTGGGCTAGGGGGCTTAGGGGGGAGTCGGTGGTGG
DNA 2: CCACCACCGACTCCCCCCTAAGCCCCCTAGCCCACCACCTCCCATCGCCAACCCACTCACCACCCGACCCAGCCGTCCACCGC
B5 was tested, and the binding signal (M. tuberculosis H-NS [6]) was ~3 fold higher concentration for 50% binding than 40% GC dsDNA.
